Results reported in the supplement of paper PMC9112550, “Optimization of the antimicrobial peptide Bac7 by deep mutational scanning” (BMC Biology, 2022).

Tested on: Escherichia coli TOP10
Test: shrunken log2 fold change of peptide-encoding DNA abundance (4.5 h post-induction vs induction); higher = less antimicrobial activity (less host growth inhibition)
Conditions: time post-induction: 4.5 h; library: site-saturation at positions 5, 18, 19, 20
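Also: peptides expressed intracellularly from a pBAD plasmid library in pooled LB shake-flask culture, induced with 0.3% L-arabinose, DNA abundance read by NGS, three biological replicates, DESeq2 with apeglm shrinkage.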

For RRIRNRPPRLPRPRPRPCNNPRP, the “shrunken log2 fold change” value was -0.0122.
RRIRFRPPRLPRPRPRPVQTPRP was tested, and the “shrunken log2 fold change” value was 0.0206.
In the case of RRIRNRPPRLPRPRPRPDSKPRP, the “shrunken log2 fold change” value was -0.335.
In the case of RRIRIRPPRLPRPRPRPPTLPRP, the “shrunken log2 fold change” value was -0.431.
RRIRFRPPRLPRPRPRPILDPRP was tested, and the “shrunken log2 fold change” value was -0.0134.
With RRIRMRPPRLPRPRPRPIKKPRP the “shrunken log2 fold change” value was 0.0441.
In the case of RRIRHRPPRLPRPRPRPYKNPRP, the “shrunken log2 fold change” value was -0.646.
RRIRYRPPRLPRPRPRPQTNPRP was tested, and the “shrunken log2 fold change” value was -0.711.
RRIRFRPPRLPRPRPRPTAGPRP was tested, and the “shrunken log2 fold change” value was 0.0761.
In the case of RRIRLRPPRLPRPRPRPHNQPRP, the “shrunken log2 fold change” value was -0.479.
For RRIRIRPPRLPRPRPRPIDWPRP, the “shrunken log2 fold change” value was -0.0878.
In the case of RRIRHRPPRLPRPRPRPRGLPRP, the “shrunken log2 fold change” value was 0.369.
With RRIRLRPPRLPRPRPRPLQEPRP the “shrunken log2 fold change” value was -0.101.
In the case of RRIRNRPPRLPRPRPRPRRCPRP, the “shrunken log2 fold change” value was 0.291.
In the case of RRIRARPPRLPRPRPRPNELPRP, the “shrunken log2 fold change” value was 0.343.
For RRIRNRPPRLPRPRPRPYREPRP, the “shrunken log2 fold change” value was 0.0155.
With RRIRDRPPRLPRPRPRPDSFPRP the “shrunken log2 fold change” value was -0.00691.
In the case of RRIRMRPPRLPRPRPRPGFVPRP, the “shrunken log2 fold change” value was 0.449.
In the case of RRIRRRPPRLPRPRPRPTYLPRP, the “shrunken log2 fold change” value was -0.348.
In the case of RRIRMRPPRLPRPRPRPNGCPRP, the “shrunken log2 fold change” value was 0.254.
With RRIRRRPPRLPRPRPRPHCWPRP the “shrunken log2 fold change” value was 0.11.
RRIRLRPPRLPRPRPRPYEYPRP was tested, and the “shrunken log2 fold change” value was -0.132.
In the case of RRIRGRPPRLPRPRPRPHQEPRP, the “shrunken log2 fold change” value was 0.305.
In the case of RRIRERPPRLPRPRPRPVNAPRP, the “shrunken log2 fold change” value was -0.353.
For RRIRFRPPRLPRPRPRPSTCPRP, the “shrunken log2 fold change” value was -0.262.
With RRIRIRPPRLPRPRPRPWGYPRP the “shrunken log2 fold change” value was -0.156.
With RRIRFRPPRLPRPRPRPARNPRP the “shrunken log2 fold change” value was 0.0979.
For RRIRVRPPRLPRPRPRPNTGPRP, the “shrunken log2 fold change” value was -0.112.
For RRIRLRPPRLPRPRPRPSPRPRP, the “shrunken log2 fold change” value was 0.307.
With RRIRCRPPRLPRPRPRPHVMPRP the “shrunken log2 fold change” value was -0.743.
RRIRNRPPRLPRPRPRPYEHPRP was tested, and the “shrunken log2 fold change” value was -0.151.
With RRIRRRPPRLPRPRPRPSRTPRP the “shrunken log2 fold change” value was 0.141.
RRIRIRPPRLPRPRPRPELFPRP was tested, and the “shrunken log2 fold change” value was 0.23.
For RRIRERPPRLPRPRPRPRHVPRP, the “shrunken log2 fold change” value was 0.0784.
RRIRKRPPRLPRPRPRPGPVPRP was tested, and the “shrunken log2 fold change” value was 0.531.
In the case of RRIRARPPRLPRPRPRPNCKPRP, the “shrunken log2 fold change” value was -0.0213.
RRIRLRPPRLPRPRPRPIEYPRP was tested, and the “shrunken log2 fold change” value was -0.426.
In the case of RRIRRRPPRLPRPRPRPLSGPRP, the “shrunken log2 fold change” value was 0.379.
With RRIRIRPPRLPRPRPRPDNKPRP the “shrunken log2 fold change” value was -0.703.
RRIRMRPPRLPRPRPRPCIWPRP was tested, and the “shrunken log2 fold change” value was 0.0563.
With RRIRCRPPRLPRPRPRPNRRPRP the “shrunken log2 fold change” value was -0.0599.
RRIRLRPPRLPRPRPRPMFDPRP was tested, and the “shrunken log2 fold change” value was -0.249.
RRIRNRPPRLPRPRPRPCDRPRP was tested, and the “shrunken log2 fold change” value was 0.0883.
For RRIRARPPRLPRPRPRPGLEPRP, the “shrunken log2 fold change” value was 0.629.
In the case of RRIRTRPPRLPRPRPRPTAKPRP, the “shrunken log2 fold change” value was -0.143.
RRIRHRPPRLPRPRPRPTCDPRP was tested, and the “shrunken log2 fold change” value was -0.011.
In the case of RRIRERPPRLPRPRPRPTQMPRP, the “shrunken log2 fold change” value was -0.155.
For RRIRCRPPRLPRPRPRPWQTPRP, the “shrunken log2 fold change” value was -0.0433.
With RRIRSRPPRLPRPRPRPCWLPRP the “shrunken log2 fold change” value was 0.102.
RRIRMRPPRLPRPRPRPRKHPRP was tested, and the “shrunken log2 fold change” value was 0.826.
RRIRHRPPRLPRPRPRPETVPRP was tested, and the “shrunken log2 fold change” value was 0.12.
RRIRTRPPRLPRPRPRPCFEPRP was tested, and the “shrunken log2 fold change” value was -0.0858.
For RRIRFRPPRLPRPRPRPEEVPRP, the “shrunken log2 fold change” value was 0.0815.
In the case of RRIRKRPPRLPRPRPRPSNFPRP, the “shrunken log2 fold change” value was -0.198.
RRIRWRPPRLPRPRPRPAWDPRP was tested, and the “shrunken log2 fold change” value was 1.05.
In the case of RRIRIRPPRLPRPRPRPKQKPRP, the “shrunken log2 fold change” value was -0.12.
With RRIRYRPPRLPRPRPRPGCWPRP the “shrunken log2 fold change” value was 0.289.
RRIRIRPPRLPRPRPRPWQTPRP was tested, and the “shrunken log2 fold change” value was 0.0238.
RRIRWRPPRLPRPRPRPCDKPRP was tested, and the “shrunken log2 fold change” value was -0.217.
For RRIRNRPPRLPRPRPRPWGIPRP, the “shrunken log2 fold change” value was -0.199.
RRIRLRPPRLPRPRPRPLNFPRP was tested, and the “shrunken log2 fold change” value was -0.268.
RRIRNRPPRLPRPRPRPRMDPRP was tested, and the “shrunken log2 fold change” value was -0.104.
RRIRGRPPRLPRPRPRPKTMPRP was tested, and the “shrunken log2 fold change” value was 0.459.
For RRIRWRPPRLPRPRPRPFMSPRP, the “shrunken log2 fold change” value was -0.0321.
With RRIRNRPPRLPRPRPRPVFPPRP the “shrunken log2 fold change” value was -0.000239.
RRIRPRPPRLPRPRPRPNPNPRP was tested, and the “shrunken log2 fold change” value was 0.367.
RRIRIRPPRLPRPRPRPLLIPRP was tested, and the “shrunken log2 fold change” value was -0.485.
RRIRRRPPRLPRPRPRPPKVPRP was tested, and the “shrunken log2 fold change” value was 0.693.
For RRIRRRPPRLPRPRPRPKTNPRP, the “shrunken log2 fold change” value was 0.221.
In the case of RRIRWRPPRLPRPRPRPWHKPRP, the “shrunken log2 fold change” value was -0.0356.
With RRIRLRPPRLPRPRPRPLYDPRP the “shrunken log2 fold change” value was -0.924.
RRIRWRPPRLPRPRPRPLVFPRP was tested, and the “shrunken log2 fold change” value was 0.0454.
With RRIRDRPPRLPRPRPRPCPRPRP the “shrunken log2 fold change” value was -0.126.
For RRIRYRPPRLPRPRPRPIWNPRP, the “shrunken log2 fold change” value was 0.0337.
With RRIRIRPPRLPRPRPRPFASPRP the “shrunken log2 fold change” value was -0.675.
RRIRVRPPRLPRPRPRPPDQPRP was tested, and the “shrunken log2 fold change” value was 0.124.
In the case of RRIRERPPRLPRPRPRPHDWPRP, the “shrunken log2 fold change” value was -0.0393.
In the case of RRIRDRPPRLPRPRPRPIFWPRP, the “shrunken log2 fold change” value was 0.0145.
For RRIRTRPPRLPRPRPRPKQDPRP, the “shrunken log2 fold change” value was 0.075.
In the case of RRIRGRPPRLPRPRPRPCQAPRP, the “shrunken log2 fold change” value was -0.0272.
For RRIRRRPPRLPRPRPRPHWSPRP, the “shrunken log2 fold change” value was -0.0676.
With RRIRQRPPRLPRPRPRPGQCPRP the “shrunken log2 fold change” value was -0.156.
For RRIRARPPRLPRPRPRPRGLPRP, the “shrunken log2 fold change” value was 0.628.
RRIRCRPPRLPRPRPRPANRPRP was tested, and the “shrunken log2 fold change” value was 0.127.
For RRIRIRPPRLPRPRPRPPNWPRP, the “shrunken log2 fold change” value was 0.0636.
RRIRCRPPRLPRPRPRPRMWPRP was tested, and the “shrunken log2 fold change” value was 0.0419.
For RRIRRRPPRLPRPRPRPWRTPRP, the “shrunken log2 fold change” value was -0.0112.
With RRIRCRPPRLPRPRPRPGFPPRP the “shrunken log2 fold change” value was 0.134.
With RRIRFRPPRLPRPRPRPSINPRP the “shrunken log2 fold change” value was -0.625.
RRIRIRPPRLPRPRPRPNMIPRP was tested, and the “shrunken log2 fold change” value was -0.225.
In the case of RRIRDRPPRLPRPRPRPAFGPRP, the “shrunken log2 fold change” value was 0.238.
